Assay [1] deals with T1, hCD155 (Table 28) (human, UniProt P15151 21-343, limits assumed).
T1 sequence (looked up): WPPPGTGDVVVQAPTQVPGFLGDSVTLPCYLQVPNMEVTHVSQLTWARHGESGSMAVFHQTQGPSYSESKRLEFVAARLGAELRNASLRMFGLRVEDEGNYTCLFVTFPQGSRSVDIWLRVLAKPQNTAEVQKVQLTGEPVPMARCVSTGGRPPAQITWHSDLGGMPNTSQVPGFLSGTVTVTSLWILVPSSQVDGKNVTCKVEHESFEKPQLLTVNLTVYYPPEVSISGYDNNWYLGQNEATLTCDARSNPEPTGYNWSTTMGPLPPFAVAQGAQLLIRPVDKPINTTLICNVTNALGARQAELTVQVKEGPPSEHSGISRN
Kind of assay: SPR 25C, biotin-CD226-His captured, steady state fitting. The protocol:
To determine the binding affinity to hu-CD226 and cy-CD226 of mAb1.v7.NGS8, h10G1, hCD155 and anti-hCD226 antibody DX11 (Abcam, cat #Ab33397), SPR measurement with a BIACORE™ 8K instrument was performed. Briefly, a 1:4 dilution of Biotin CAPture Reagent (GE Healthcare) into HBS-EP buffer (0.01 M HEPES pH 7.4, 0.15 M NaCl, 3 mM EDTA, 0.005% Surfactant P20) was applied to the chip at 2 µL/min flow rate. For the kinetics measurements, 5 µg/ml of biotinylated hu-CD226 His tag (Sino biological, cat #10565-H08H) and cy-CD226 His tag (Arco biosystems, cat #DN1-052H9) was captured at 10 µL/min to achieve ~50 response units in the second flow cell (FC2). FC1 was kept as a reference. Next, 3-fold serial dilutions of IgG in HBS-P buffer (0.01 M HEPES pH 7.4, 0.15 M NaCl, 0.005% surfactant P20) from low (1.3 nM) to high (1000 nM) concentration were injected (flow rate: 30 µL/min) at 25° C. The sensorgram was recorded and subject to reference and buffer subtraction before evaluating by BIACORE® 8K Evaluation Software (version 1.1.1.7442). Association rates ($kon$) and dissociation rates ($koff$) were calculated using a simple one-to-one Langmuir binding model. The equilibrium dissociation constant (K_D) value was calculated as the ratio of $koff/kon$. […]

Assay [2] has as its target T2, hu-CD96 Fc (human, biotinylated in Table 16).
T2 construct: also called biotinylated hu-CD96-Fc
The assay is described as follows: SPR (Biacore), Fab. Background: In SPR one partner is held on a chip, and binding of the other changes the refractive index at the surface.

Assay [3] has as its target T3, cy-CD96 Fc (cynomolgus monkey, biotinylated in Table 16).
T3 construct: also called biotinylated cy-CD96-Fc
The assay is described as follows: SPR (Biacore), Fab.

For assay [4], the target named is T4, hu-CD96 (soluble, isoform 2 extracellular domain) (human, UniProt P40200 22-516, biotinylated in Octet and blocking ELISA).
T4 construct: the assays name only hu-CD96; also called hCD96; biotinylated hu-CD96
T4 sequence: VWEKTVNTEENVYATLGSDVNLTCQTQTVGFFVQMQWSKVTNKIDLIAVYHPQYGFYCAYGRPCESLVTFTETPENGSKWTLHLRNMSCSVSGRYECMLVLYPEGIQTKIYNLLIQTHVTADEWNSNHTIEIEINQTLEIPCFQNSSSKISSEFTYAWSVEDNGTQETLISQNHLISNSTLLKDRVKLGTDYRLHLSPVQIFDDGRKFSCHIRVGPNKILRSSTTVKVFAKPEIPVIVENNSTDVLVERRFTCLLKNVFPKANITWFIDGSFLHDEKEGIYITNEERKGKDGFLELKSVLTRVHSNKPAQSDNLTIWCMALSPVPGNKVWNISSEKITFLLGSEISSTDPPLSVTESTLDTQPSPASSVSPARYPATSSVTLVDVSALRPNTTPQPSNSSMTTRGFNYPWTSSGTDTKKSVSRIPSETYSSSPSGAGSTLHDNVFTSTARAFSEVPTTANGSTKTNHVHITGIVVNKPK
The assay is described as follows: CD155 blocking ELISA. (ELISA stands for enzyme-linked immunosorbent assay.)

Assay [5] concerns the target T5, cy-CD96 (soluble, extracellular domain) (cynomolgus monkey, UniProt P40200 22-516 (human entry), biotinylated in Octet and blocking ELISA).
T5 construct: the assays name only cy-CD96; also called biotinylated cy-CD96
T5 chain: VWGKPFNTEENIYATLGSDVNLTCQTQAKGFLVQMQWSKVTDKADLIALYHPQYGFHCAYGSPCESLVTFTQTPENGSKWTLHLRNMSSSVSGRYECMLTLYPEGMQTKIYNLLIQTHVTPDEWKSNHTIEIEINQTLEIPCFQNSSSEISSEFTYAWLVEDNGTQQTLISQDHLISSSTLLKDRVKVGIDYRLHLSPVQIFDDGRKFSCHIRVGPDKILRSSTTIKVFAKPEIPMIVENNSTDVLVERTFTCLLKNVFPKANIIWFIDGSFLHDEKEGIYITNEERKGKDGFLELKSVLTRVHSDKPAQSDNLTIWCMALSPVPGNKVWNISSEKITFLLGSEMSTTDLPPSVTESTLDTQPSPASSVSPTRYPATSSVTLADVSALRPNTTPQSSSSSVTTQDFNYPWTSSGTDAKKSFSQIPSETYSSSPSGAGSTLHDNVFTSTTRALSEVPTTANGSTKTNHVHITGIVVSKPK
The assay is described as follows: CD155 blocking ELISA.

Assay [6] deals with T4, hu-CD96 (soluble, isoform 2 …). Kind of assay: BLI (Octet), biotin-CD96 on SA, Fab analyte. On the technique in general: Biolayer interferometry detects binding as a change in optical thickness at a sensor tip.
Assay [7] deals with T5, cy-CD96 (soluble, extracellular domain). The assay is described as follows: BLI (Octet), biotin-CD96 on SA, Fab analyte.

B1: cy-CD226 His tag (receptor, cynomolgus monkey)
chain: EEVLWHTSVPFAENMSLECVYPSVGILTQVEWFKIGTEKDSIAIFSPTHGMVIRKPYAERVYFLNSTMASNNMTLFFRNASEDDVGYYSCSLYTYPQGTWQKVIQVVQSDGFEAAVPPNSHIVSEPGKNITLTCQPQMTWPVQEVRWEKVQPHQIDLLTYCDLVHGRNFTSKFPRQIVSNCSHGSWSFIVVPDVTASDSGLYRCHLQASAGENETFVMRLTVAEGQTDN
modifications: biotinylated
In general, Kd refers to the free concentration of one partner at which half of the binding sites on the other are occupied at equilibrium, for simple one-to-one binding. A lower Kd goes with higher affinity. In assay [1], B1 gave an equilibrium dissociation constant (Kd) of 67.5 nM.

B2: mAb1.v7.NGS9 Fab (Fab, V domains shown)
VH: EVQLVQSGAEVKKPGASVKVSCKASGFTFTNNFMHWVRQAPGQGLEWIGMIHANSGITNINEKFKNRVTMTTDTSTSTAYMELRSLRSEDTAVYYCRSDGVYEGYFDYWGQGTLVTVSS
VL: DIQLTQSPSSLSASVGDRVTITCKASQNVGTAIVWYQQKPGKAPKVLIYSASTRYTGVPSRFSGSGSGTDFTLTISSLQPEDFATYYCQQYSSSPLTFGQGTKVEIK
notes: also called W33F/P52aA/T97V
The term koff denotes the first-order rate constant of dissociation. Read a high koff as a short-lived complex. One may read the kon as a measure of how fast the partners come together. Read a high kon as fast association. What is called IC50 is the midpoint of a concentration-inhibition curve. As for B2, the dissociation constant (Kd) in assay [2] was 5.85 nM; in assay [3], 16.7 nM; in assay [6] it was 0.1 nM; in assay [7], 82 nM. The figures for the off-rate constant (koff) in assay [2] and in assay [3] were 8.32e-05 s⁻¹ and 0.000414 s⁻¹, respectively. The values for the kon in assay [2] and in assay [3] were 14200 M⁻¹ s⁻¹ and 24800 M⁻¹ s⁻¹, respectively. Further, the half-maximal inhibitory concentration (IC50) came out at 0.78 nM in assay [4] and 0.73 nM in assay [5].

B3: mAb1.v7.NGS10 Fab (Fab, V domains shown)
VH: EVQLVQSGAEVKKPGASVKVSCKASGFTFTNNFMHWVRQAPGQGLEWIGFIHANSGITNINEKFKNRVTMTTDTSTSTAYMELRSLRSEDTAVYYCRSDGIYEGYFDYWGQGTLVTVSS
VL: DIQLTQSPSSLSASVGDRVTITCKASQNVGTAIVWYQQKPGKAPKVLIYSASTRYTGVPSRFSGSGSGTDFTLTISSLQPEDFATYYCQQYSSSPLTFGQGTKVEIK
notes: Fab; also called W33F/M50F/P52aA/T97I
In assay [2], B3 returned a dissociation constant (Kd) of 2.1 nM, a koff of 2.6e-05 s⁻¹ and a kon of 12100 M⁻¹ s⁻¹. In assay [3], this molecule had an equilibrium dissociation constant (Kd) of 30 nM, a koff of 0.000343 s⁻¹ and an association rate constant (kon) of 11400 M⁻¹ s⁻¹. In addition, in assay [4], the IC50 amounted to 0.54 nM. The molecule further displayed an IC50 in assay [5] of 0.84 nM.

B4: mAb1.v7.NGS11 Fab (Fab, V domains shown)
VH: EVQLVQSGAEVKKPGASVKVSCKASGFTFTNNFMHWVRQAPGQGLEWIGFIHANSGITNINEKFKNRVTMTTDTSTSTAYMELRSLRSEDTAVYYCRSDGVYEGYFDYWGQGTLVTVSS
VL: DIQLTQSPSSLSASVGDRVTITCKASQNVGTAIVWYQQKPGKAPKVLIYSASTRYTGVPSRFSGSGSGTDFTLTISSLQPEDFATYYCQQYSSSPLTFGQGTKVEIK
notes: also called W33F/M50F/P52aA/T97V
Take B4: in assay [2], the dissociation constant Kd amounted to 2.62 nM, the off-rate constant (koff) was 2.75e-05 s⁻¹ and the kon stood at 10500 M⁻¹ s⁻¹. Further, in assay [3], the Kd turned out to be 19.1 nM, the koff stood at 0.000215 s⁻¹ and the kon came to 11200 M⁻¹ s⁻¹. The molecule further came in with a concentration for half-maximal inhibition (IC50) in assay [4] of 0.59 nM. Moreover, the IC50 in assay [5] is 0.95 nM.

B5: hu-CD226 His tag (receptor, human, UniProt Q15762 19-247, looked up)
chain: EEVLWHTSVPFAENMSLECVYPSMGILTQVEWFKIGTQQDSIAIFSPTHGMVIRKPYAERVYFLNSTMASNNMTLFFRNASEDDVGYYSCSLYTYPQGTWQKVIQVVQSDSFEAAVPSNSHIVSEPGKNVTLTCQPQMTWPVQAVRWEKIQPRQIDLLTYCNLVHGRNFTSKFPRQIVSNCSHGRWSVIVIPDVTVSDSGLYRCYLQASAGENETFVMRLTVAEGKTDN
modifications: biotinylated
Turning to B5, in assay [1], binding was put at a Kd of 161 nM.

For the origin of these results see patent US12365732 (23ANDME, dated 2025).
